Experiment [1] has as its target T1, human MerTK on human macrophages (human, UniProt Q12866 21-999).
T1 sequence: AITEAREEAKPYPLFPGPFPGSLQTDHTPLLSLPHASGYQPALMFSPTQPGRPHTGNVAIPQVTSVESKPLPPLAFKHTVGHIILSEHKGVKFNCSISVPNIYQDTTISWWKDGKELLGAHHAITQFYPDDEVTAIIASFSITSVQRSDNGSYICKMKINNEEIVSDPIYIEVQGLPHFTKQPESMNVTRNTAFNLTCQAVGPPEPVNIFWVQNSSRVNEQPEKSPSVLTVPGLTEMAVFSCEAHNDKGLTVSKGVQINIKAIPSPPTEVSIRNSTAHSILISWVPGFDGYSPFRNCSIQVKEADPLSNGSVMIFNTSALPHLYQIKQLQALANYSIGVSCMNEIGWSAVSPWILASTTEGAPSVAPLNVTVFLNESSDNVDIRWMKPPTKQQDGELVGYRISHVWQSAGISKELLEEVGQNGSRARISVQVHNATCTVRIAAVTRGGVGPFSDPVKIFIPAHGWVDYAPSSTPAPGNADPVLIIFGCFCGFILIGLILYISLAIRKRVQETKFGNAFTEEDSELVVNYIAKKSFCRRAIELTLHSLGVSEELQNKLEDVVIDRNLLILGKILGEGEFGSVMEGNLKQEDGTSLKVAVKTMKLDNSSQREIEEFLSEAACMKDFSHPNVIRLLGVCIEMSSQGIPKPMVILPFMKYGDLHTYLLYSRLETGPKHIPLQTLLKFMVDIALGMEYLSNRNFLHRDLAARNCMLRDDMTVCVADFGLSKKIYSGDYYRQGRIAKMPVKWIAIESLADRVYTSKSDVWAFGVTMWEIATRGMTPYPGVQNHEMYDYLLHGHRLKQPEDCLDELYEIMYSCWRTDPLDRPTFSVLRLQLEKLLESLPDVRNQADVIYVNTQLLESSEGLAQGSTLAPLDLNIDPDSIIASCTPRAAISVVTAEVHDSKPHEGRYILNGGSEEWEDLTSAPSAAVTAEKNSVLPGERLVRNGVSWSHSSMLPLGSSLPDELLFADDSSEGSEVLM
Kind of experiment: cell-based or functional assay.

Experiment [2] concerns the target T1, human MerTK on human macrophages. Nature of the experiment: cell-based or functional assay. The source holds these as a separate data set.
Experiment [3] shares this target. Nature of the experiment: cell-based or functional assay. This is another data set of the same source.
Experiment [4] deals with T2, human MerTK (human, UniProt Q12866 26-499).
T2 construct: also called HuMER
T2 sequence: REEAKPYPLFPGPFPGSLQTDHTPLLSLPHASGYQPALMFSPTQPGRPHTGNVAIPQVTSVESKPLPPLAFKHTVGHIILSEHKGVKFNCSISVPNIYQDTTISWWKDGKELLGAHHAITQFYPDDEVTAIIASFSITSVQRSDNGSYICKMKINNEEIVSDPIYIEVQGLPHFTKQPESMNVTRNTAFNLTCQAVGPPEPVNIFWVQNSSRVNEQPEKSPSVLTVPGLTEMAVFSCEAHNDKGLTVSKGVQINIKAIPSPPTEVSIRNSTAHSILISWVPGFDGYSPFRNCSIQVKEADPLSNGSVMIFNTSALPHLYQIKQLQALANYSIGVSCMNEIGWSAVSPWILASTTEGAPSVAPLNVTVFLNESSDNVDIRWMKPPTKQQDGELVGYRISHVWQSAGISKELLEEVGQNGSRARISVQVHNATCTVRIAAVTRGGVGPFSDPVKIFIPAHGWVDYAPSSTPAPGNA
Kind of experiment: SPR BIAcore T200, Ab captured, 37C. Here is the method: (§1) All binding affinity determinations were obtained using Surface Plasmon Resonance (SPR) measurements from a BIAcore™-T200 instrument. Briefly, each rabbit or humanized antibody was captured to achieve approximately 100 RU (Response Units). Then, 3-fold serial dilutions of MerTK from various species (0.4 nM to 100 nM) diluted in HBS-EP buffer (0.01M HEPES pH 7.4, 0.15M NaCl, 3 mM EDTA and 0.05% v/v surfactant P20) was injected into the BIAcore™-T200 instrument at 25° C. or 37° C. with a flow rate of 30 μl/min. Association rates (kₒₙ) and dissociation rates (koff) were calculated using a simple one-to-one Langmuir binding model (BIAcore T200 evaluation software version 2.0). The equilibrium dissociation constant (KD) was calculated as the ratio koff/kₒₙ.
On the technique in general: Surface plasmon resonance follows binding to a sensor surface in real time, without labels.

For another experiment, the target named is T3, cynomolgus monkey MerTK (cynomolgus monkey, UniProt A0A2K5V1H9 32-505).
T3 construct: Soluble analyte in SPR; also called Cyno MerTK
T3 sequence: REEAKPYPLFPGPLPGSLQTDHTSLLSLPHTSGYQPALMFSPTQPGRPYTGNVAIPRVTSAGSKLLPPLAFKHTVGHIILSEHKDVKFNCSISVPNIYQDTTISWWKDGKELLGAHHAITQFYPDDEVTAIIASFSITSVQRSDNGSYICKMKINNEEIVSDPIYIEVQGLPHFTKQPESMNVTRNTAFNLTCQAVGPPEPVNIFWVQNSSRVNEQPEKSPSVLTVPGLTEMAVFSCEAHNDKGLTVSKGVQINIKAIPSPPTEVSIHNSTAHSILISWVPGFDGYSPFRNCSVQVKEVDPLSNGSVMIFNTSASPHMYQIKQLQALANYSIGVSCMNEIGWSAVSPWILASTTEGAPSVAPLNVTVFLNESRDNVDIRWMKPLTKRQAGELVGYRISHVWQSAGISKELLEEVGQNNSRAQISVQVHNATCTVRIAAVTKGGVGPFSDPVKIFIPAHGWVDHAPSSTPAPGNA
Nature of the experiment: SPR BIAcore T200, Ab captured, 37C. Here is the method: as §1

Experiment [5] has as its target T2, human MerTK. Nature of the experiment: SPR BIAcore T200, Ab captured on protein A chip, 25C. An excerpt:
(§2) For binding affinity determinations of anti-MerTK antibodies of the present disclosure as a control along with commercial MerTK antibodies, Surface Plasmon Resonance (SPR) measurement with a BIAcore™-T200 instrument was used. First, two rabbit antibodies (Y323 and 10g86_D21F11) and the anti-MerTK antibody h13B4.v16 were captured by protein A sensor chip, and eight mouse antibodies (A3KCAT,2D2,7E5G1,7N-20,590H11G1E3, MAB891, MAB8911 and MAB8912-100) were captured by goat anti-mouse IgGs sensor chip respectively on each flow cell to achieve approximately 100RU. Three-fold serial dilutions of human MerTK (0.4 nM to 100 nM) were injected in HBS-EP buffer (0.01M HEPES pH 7.4, 0.15M NaCl, 3 mM EDTA and 0.05% v/v surfactant P20) at 25° C. with a flow rate of 50 μl/min to record the binding response as a function of time. The sensorgram was fitted with one-to-one Langmuir binding model to calculate association rates (kₒₙ) and dissociation rates (koff) (BIAcore T200 evaluation software version 2.0). The binding affinity (equilibrium dissociation constant (KD)) was calculated as the ratio koff/kₒₙ.

Experiment [6] concerns the target T2, human MerTK. Kind of experiment: SPR (BIAcore kinetic screen), h13B4.v16 captured on protein A chip, hMerTK as analyte, 25°C, 1:1 binding model [Cont.].
Description: as §2

Like-named read-outs stand apart in the source and are kept apart here.

B1: h13B4.v16 (antibody, V domains shown)
VH: EVQLVESGEGLVQPGGSLRLSCAASGFSLSSYAMGWVRQAPGKGLEYVGIINSYGNTYYANWAKGRFTISRDNSKNTVYLQMGSLRAEDMAVYYCARDPGVSSNLWGRGTLVTVSS
VL: DIQMTQSPSTLSASVGDRVTITCQASQNIYSGLAWYQQKPGKAPKLLIYGASKLASGVPSRFSGSGSGTEFTLTISSLQPDDFATYYCQATYYSSNSVAFGGGTKVEIK
notes: Humanized, human IgG1; also called 13B4 Fully Humanized; 13B4 Humanized polished mAb
A word on the Kd: it is a measure of binding affinity in units of concentration. By koff is commonly meant the first-order rate constant of dissociation. The kon is the rate constant with which the complex forms. Regarding B1, in experiment [1], the “fold potency in inhibiting human macrophage phagocytosis, against h10F7.v16” value came to 5.2 fold. In addition, in experiment [2], the “IC50 (nM), efferocytosis by human macrophages, Average (3 Donors)” value turned out to be 0.08 nM; the “IC50 (nM), efferocytosis by human macrophages, Donor A” value turned out to be 0.07 nM; the “IC50 (nM), efferocytosis by human macrophages, Donor B” value was determined as 0.08 nM; the “IC50 (nM), efferocytosis by human macrophages, Donor C” value was 0.09 nM. In experiment [2], the “Max Inhibition (%), efferocytosis by human macrophages, Average (3 Donors)” value was determined as 83%; the “Max Inhibition (%), efferocytosis by human macrophages, Donor A” value turned out to be 91%; the “Max Inhibition (%), efferocytosis by human macrophages, Donor B” value came out at 82%; the “Max Inhibition (%), efferocytosis by human macrophages, Donor C” value came out at 77%. Also, in experiment [3], the “IC50 (nM), efferocytosis by human macrophages, Average (3 Donors)” value was 0.08 nM. For the same molecule, binding with human MerTK [4] was put at a Kd of 5.1 nM. The molecule also gave a Kd with cynomolgus monkey MerTK of 5.7 nM. In the experiment with human MerTK [5], this molecule gave a Kd of 1.6 nM. In the experiment with human MerTK [6], this molecule gave a Kd of 1.63 nM, an off-rate (koff) of 0.000151 s⁻¹ and a kon of 92400 M⁻¹ s⁻¹.

Values taken from US20220135701A1 (Genentech, published 2022).
